Test results reported in the supplement of paper PMC9170038.

System: MS2 coat protein
Assay: apparent KD of MS2 coat protein; designed switch direction (-1 OFF switch, 1 ON switch): -1; higher = weaker reporter binding
Summary of the method: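 SNAP-549-labelled MS2 coat protein was titrated, doubling from 0.7 or 1.5 nM to 3 µM, over designed RNA switches transcribed on Illumina chips by stalled E. coli RNA polymerase. Runs were done without input, with 200 uM small-molecule ligand, or with an oligonucleotide input. Apparent KD is the per-design median over clusters of curve-fitted normalised fluorescence.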

[1] = Eterna round: R95, input ligand: FMN 200 uM
[2] = Eterna round: R95, input ligand: microRNA oligo, concentration not stated
[3] = Eterna round: R95, input ligand: none
[4] = input ligand: microRNA oligo, concentration not stated

“AUAAAUAACGUUAGGAUAUAUUUUGUGACAUCAGGAUAGAAGGAACAUGAGGAUCACCCAUGUGAUUCUGUGAA [Maenin] (puzzle: Brourd's mod of Exclusion 4)” was tested, and the “apparent KD of MS2 coat protein” value [1] was 46.6 nM, the “apparent KD of MS2 coat protein” value [2] was 37.2 nM and the “apparent KD of MS2 coat protein” value [3] was 40.3 nM.
In the case of “AUAAAUCAUGUAGGAUAUGCGUGGCGAAGCUAUGCAGAAGGACAUGAGGAUCACCCAUGUGCUUGCGUCUGAGUACAGAUGCUA [Mat - Exclusion NG 1 - Mod of JL - D6] (Eterna round: R96, puzzle: Exclusion NG 1)”, the “apparent KD of MS2 coat protein” value (input ligand: FMN 200 uM) is reported as 264 nM, the “apparent KD of MS2 coat protein” value [4] is reported as 77.1 nM and the “apparent KD of MS2 coat protein” value (input ligand: none) is reported as 91.8 nM.
In the case of “AUAAAUCAUGUAGGAUAUGCGUGGCGAAGCUAUGCAGAAGGACAUGAGGAUCACCCAUGUUCUAGCGUCUGAGUACAGAUGCAA [Mat - Exclusion NG 1 - Mod of JL - D3] (Eterna round: R96, puzzle: Exclusion NG 1)”, the “apparent KD of MS2 coat protein” value (input ligand: FMN 200 uM) is reported as 72.5 nM, the “apparent KD of MS2 coat protein” value [4] is reported as 18.5 nM and the “apparent KD of MS2 coat protein” value (input ligand: none) is reported as 22.9 nM.
With “AUAACGUGGGCGUCCCACGGCAAGCUUUUUGCUCGUUUGACAUGAGGAUCACCCAUGUAGCUGCGGGAUCCCUAUGA [Anatsobe] (puzzle: Sensor v3, turn-off variant 2)” the “apparent KD of MS2 coat protein” value [1] was 17.6 nM, the “apparent KD of MS2 coat protein” value [2] was 22.5 nM and the “apparent KD of MS2 coat protein” value [3] was 15.2 nM.
With “AUAAGUAUAUAGGAUAUCUAGCUGGUAACAGCUAGAGAAGGAUGUACAUGAGGAUCACCCAUGUAAAUCGAUCA [Ex6/10-A2] (Eterna round: R97, puzzle: Exclusion 6)” the “apparent KD of MS2 coat protein” value (input ligand: FMN 200 uM) was 18.5 nM and the “apparent KD of MS2 coat protein” value (input ligand: none) was 18.1 nM.
In the case of “AUAAUACAUGAGGAUCACCCAUGUGAGGAUAUACGACUCCAACCUAACAGCUUGGACCGUAGAAGGCACAAGGG [Exclusion 1 (MOD1.2 Esqu)] (Eterna round: R97, puzzle: Exclusion 1)”, the “apparent KD of MS2 coat protein” value (input ligand: FMN 200 uM) is reported as 54.5 nM and the “apparent KD of MS2 coat protein” value (input ligand: none) is reported as 261 nM.
“AUAAUCGUAGGAUAUCAUUAGCCCUACAUGAGGAUCACCCAUGUGGGCUGGUGAGGGCGGUGAGAAGGACGAGAGA [EX5 B.1] (Eterna round: R97, puzzle: Exclusion 5)” was tested, and the “apparent KD of MS2 coat protein” value (input ligand: FMN 200 uM) was 25.1 nM and the “apparent KD of MS2 coat protein” value (input ligand: none) was 18.4 nM.
For “AUAAUGUAAGGAUAUCAGUCGUACAGCCUCGGCUGUACGACUGAGAAGGUACAUGAGGAUCACCCAUGUGGUCA [E4/9-A2] (Eterna round: R97, puzzle: Exclusion 4)”, the “apparent KD of MS2 coat protein” value (input ligand: FMN 200 uM) was 103 nM and the “apparent KD of MS2 coat protein” value (input ligand: none) was 1040 nM.
“AUAAUGUAAGGAUAUCAGUCGUACAGCUGCGGCUGUACGACUGAGAAGGUACAUGAGGAUCACCCAUGUGAUCA [E4/8-A3] (Eterna round: R97, puzzle: Exclusion 4)” was tested, and the “apparent KD of MS2 coat protein” value (input ligand: FMN 200 uM) was 104 nM and the “apparent KD of MS2 coat protein” value (input ligand: none) was 1380 nM.
In the case of “AUAAUGUCAGGAUAUCAGACGUACAGCUGCGGCUGUACGUCUGAGAAGGGACAUGAGGAUCACCCAUGUGAUUA [E4/3-A3] (Eterna round: R97, puzzle: Exclusion 4)”, the “apparent KD of MS2 coat protein” value (input ligand: FMN 200 uM) is reported as 124 nM and the “apparent KD of MS2 coat protein” value (input ligand: none) is reported as 1460 nM.
With “AUAAUUAAUGCAGGAUAUCAGCACGUUUAGUGCUGAGAAGGGCACAUGAGGAUCACCCAUGUGAUCAAUUAAUAUUAAUAUUAU [ENG1/11-D2] (Eterna round: R96, puzzle: Exclusion NG 1)” the “apparent KD of MS2 coat protein” value (input ligand: FMN 200 uM) was 269 nM, the “apparent KD of MS2 coat protein” value [4] was 51.1 nM and the “apparent KD of MS2 coat protein” value (input ligand: none) was 65 nM.
For “AUACACUAACGAGGAUAUUGGAAAGGAAGUGUACAAGAAGGCGUCCGUGGAAGGGUGAAACAUGAGGAUCACCCAUGUGAAUAA [Exclusion NG 1] (Eterna round: R96, puzzle: Exclusion NG 1)”, the “apparent KD of MS2 coat protein” value (input ligand: FMN 200 uM) was 519 nM, the “apparent KD of MS2 coat protein” value [4] was 254 nM and the “apparent KD of MS2 coat protein” value (input ligand: none) was 648 nM.
With “AUACACUAGCGAGGAUAUUGGAAAGGAAGUGUACAAGAAGGCGCCCGUGGAAGGGUGAAACAUGAGGAUCACCCAUGUGAAUAA [PowerStrip EXNG 1.29] (Eterna round: R96, puzzle: Exclusion NG 1)” the “apparent KD of MS2 coat protein” value (input ligand: FMN 200 uM) was 151 nM, the “apparent KD of MS2 coat protein” value [4] was 96.2 nM and the “apparent KD of MS2 coat protein” value (input ligand: none) was 66.1 nM.
For “AUACUCGUUGUGAGGAUAUCGUUUUCGUCACGGAUCGAGAAGGCACAUGAGGAUCACCCAUGUUUGACGUGAAU [JR_BMOE4_Sub092] (puzzle: Brourd's mod of Exclusion 4)”, the “apparent KD of MS2 coat protein” value [2] was 15.4 nM.
“AUAGGUUCGUAGGAUAUUCCUGCAGGCGCGCUGGAAGAAGGAUGAACAUGAGGAUCACCCAUGUGAACACUCCG [Eternabot (L2) Solution 88] (Eterna round: R97, puzzle: Exclusion 6)” was tested, and the “apparent KD of MS2 coat protein” value (input ligand: FMN 200 uM) was 78.3 nM and the “apparent KD of MS2 coat protein” value (input ligand: none) was 19.6 nM.
With “AUAUACAAGCAAAGAUCCUACAUGAGGAUCACCCAUGUGUUCGUCUUAUAAAGUACUAUCACGAAAGUGAUAGUACA [Mat - Sensor v3 - turn-off var 1 - Eli Mod - D80] (puzzle: Sensor v3, turn-off variant 1)” the “apparent KD of MS2 coat protein” value [1] was 161 nM, the “apparent KD of MS2 coat protein” value [2] was 6.99 nM and the “apparent KD of MS2 coat protein” value [3] was 87.8 nM.
“AUAUACGGAGGAUAUACUUGAGGAUCACCCAAGUGGAAUCCCGUUUGGGCGGUAAAUAGUAGAAGGCCGACCCA [jl-ex3-4.42 ViennaUCT mod] (Eterna round: R97, puzzle: Exclusion 3)” was tested, and the “apparent KD of MS2 coat protein” value (input ligand: FMN 200 uM) was 17.7 nM and the “apparent KD of MS2 coat protein” value (input ligand: none) was 16.3 nM.
For “AUAUACGGAGGAUAUACUUGAGGAUCACCCAAGUGGAGUCCCGUUUGGGCGGUAAAUAGUAGAAGGCCGUCCCA [jl-ex3-4.44 ViennaUCT mod] (Eterna round: R97, puzzle: Exclusion 3)”, the “apparent KD of MS2 coat protein” value (input ligand: FMN 200 uM) was 16.8 nM and the “apparent KD of MS2 coat protein” value (input ligand: none) was 12.3 nM.
In the case of “AUAUAUAGUGUGAGGAUAUGCUGGUCCUUGGAUCAGCAGAAGGCACAUGAGGAUCACCCAUGUAGUUUAUUUUA [Mat - Exclusion 4 - JL Mod - D1] (puzzle: Brourd's mod of Exclusion 4)”, the “apparent KD of MS2 coat protein” value [2] is reported as 29.3 nM.
In the case of “AUAUUAAUAUAGGAUAUCGAAAUUAUUAAUUAUCGAGAAGGAUAAACAUGAGGAUCACCCAUGUGGUAUCAUGG [Mat - Exclusion 6 - JL Mod - D41] (puzzle: Exclusion 6)”, the “apparent KD of MS2 coat protein” value [1] is reported as 257 nM, the “apparent KD of MS2 coat protein” value [2] is reported as 257 nM and the “apparent KD of MS2 coat protein” value [3] is reported as 328 nM.
For “AUAUUGUGAGGAUAUGAAGUUAGUAUCGAAAGAUACUAAGUUCAGAAGGCACAUGAGGAUCACCCAUGUUUCUC [Long static hairpin v4] (Eterna round: R97, puzzle: Exclusion 4)”, the “apparent KD of MS2 coat protein” value (input ligand: FMN 200 uM) was 710 nM and the “apparent KD of MS2 coat protein” value (input ligand: none) was 71.5 nM.
With “AUAUUGUGAGGAUAUGAUCUUAGUAUCGAAAGAUACUAAGUUCAGAAGGCACAUGAGGAUCACCCAUGUUUCUC [Long static hairpin v14] (Eterna round: R97, puzzle: Exclusion 4)” the “apparent KD of MS2 coat protein” value (input ligand: FMN 200 uM) was 982 nM and the “apparent KD of MS2 coat protein” value (input ligand: none) was 70.6 nM.
“AUCAAGGGAGGAUAUACAGUGAACAGUACUAGUCAGGCGGCACAUGAGGAUCACCCAUGUAGAAGGCCCAUGAU [Eternabot (L1) Solution 70] (Eterna round: R97, puzzle: Exclusion 2)” was tested, and the “apparent KD of MS2 coat protein” value (input ligand: FMN 200 uM) was 80 nM and the “apparent KD of MS2 coat protein” value (input ligand: none) was 24.8 nM.
For “AUCAGCUCGUCAGGAUAUACAUGCGUGCUUCGGCACGAAUUUAAGAUCACAUGAGGAUCACCCAUGUAGAAGGGACGAGCUGAU [ENG2/3-B3] (Eterna round: R96, puzzle: Exclusion NG 2)”, the “apparent KD of MS2 coat protein” value (input ligand: FMN 200 uM) was 1270 nM, the “apparent KD of MS2 coat protein” value [4] was 498 nM and the “apparent KD of MS2 coat protein” value (input ligand: none) was 526 nM.
In the case of “AUCAGCUCGUGAGGAUAUACAUGAGGAUCACCCAUGUGAUCAAUAGCAGCUUCGGCUGCAUUAAUGUAGAAGGCACGAGCUGAU [ENG2/5-A3] (Eterna round: R96, puzzle: Exclusion NG 2)”, the “apparent KD of MS2 coat protein” value (input ligand: FMN 200 uM) is reported as 77.9 nM, the “apparent KD of MS2 coat protein” value [4] is reported as 22.2 nM and the “apparent KD of MS2 coat protein” value (input ligand: none) is reported as 214 nM.
In the case of “AUCAUGUAAGGAUAUCUUACAUGUGACGAAAGUCACAGUUAAGAGAAGGUACAUGAGGAUCACCCAUGUAUAAC [Ex4-3: 36] (puzzle: Exclusion 4)”, the “apparent KD of MS2 coat protein” value [2] is reported as 26.6 nM.
In the case of “AUCCAGGCAGGAUAUUGCCGGUUGCACAUGAGGAUCACCCAUGUACUCCUAGGUCGAUGGCAAGAAGGGCUAUCCA [Eternabot (Original) Solution 24] (Eterna round: R97, puzzle: Exclusion 5)”, the “apparent KD of MS2 coat protein” value (input ligand: FMN 200 uM) is reported as 26.6 nM and the “apparent KD of MS2 coat protein” value (input ligand: none) is reported as 36 nM.
“AUCGUGCAGCAAAGCUGUACGAGUACAUGAGGAUCACCCAUGUAGGAUAUGGUACGCAAAGCGUGCUAGAAGGAUAUGAGAUUU [Mat - Exclusion NG 3 - Mod of JL - D100] (Eterna round: R96, puzzle: Exclusion NG 3)” was tested, and the “apparent KD of MS2 coat protein” value (input ligand: FMN 200 uM) was 55.4 nM, the “apparent KD of MS2 coat protein” value [4] was 27.8 nM and the “apparent KD of MS2 coat protein” value (input ligand: none) was 45.2 nM.
With “AUCGUGCAGCUUUGCUGUACGAGUACAUGAGGAUCACCCAUGUAGGAUAUGGUACGCUUUGCGUGCUAGAAGGAUAUGAGAUGU [JL ENG3 1.49] (Eterna round: R96, puzzle: Exclusion NG 3)” the “apparent KD of MS2 coat protein” value (input ligand: FMN 200 uM) was 37.6 nM, the “apparent KD of MS2 coat protein” value [4] was 32 nM and the “apparent KD of MS2 coat protein” value (input ligand: none) was 33 nM.
In the case of “AUCGUGUGAGGAUAUCGAUCAUGGAGGUCUAGGUCUAUGCGCGAGAAGGCACAUGAGGAUCACCCAUGUAAUGG [jl-ex4-4.29 ViennaUCT mod] (Eterna round: R97, puzzle: Exclusion 4)”, the “apparent KD of MS2 coat protein” value (input ligand: FMN 200 uM) is reported as 59.9 nM and the “apparent KD of MS2 coat protein” value (input ligand: none) is reported as 636 nM.
